{"source": "paper PMC6079076", "about": "“Structure of the mouse TRPC4 ion channel” (Nature Communications, 2018)", "proteins": {"B1": {"name": "mouse TRPC4 (residues a.a. 1–758, excluding a.a. 759–974) (domain or fragment, UniProt Q9QUQ5 1-758, looked up)", "chain": "MAQFYYKRNVNAPYRDRIPLRIVRAESELSPSEKAYLNAVEKGDYASVKKSLEEAEIYFKININCIDPLGRTALLIAIENENLELIELLLSFNVYVGDALLHAIRKEVVGAVELLLNHKKPSGEKQVPPILLDKQFSEFTPDITPIILAAHTNNYEIIKLLVQKGVSVPRPHEVRCNCVECVSSSDVDSLRHSRSRLNIYKALASPSLIALSSEDPFLTAFQLSWELQELSKVENEFKSEYEELSRQCKQFAKDLLDQTRSSRELEIILNYRDDNSLIEEQSGNDLARLKLAIKYRQKEFVAQPNCQQLLASRWYDEFPGWRRRHWAVKMVTCFIIGLLFPVFSVCYLIAPKSPLGLFIRKPFIKFICHTASYLTFLFLLLLASQHIDRSDLNRQGPPPTIVEWMILPWVLGFIWGEIKQMWDGGLQDYIHDWWNLMDFVMNSLYLATISLKIVAFVKYSALNPRESWDMWHPTLVAEALFAIANIFSSLRLISLFTANSHLGPLQISLGRMLLDILKFLFIYCLVLLAFANGLNQLYFYYEETKGLSCKGIRCEKQNNAFSTLFETLQSLFWSIFGLINLYVTNVKAQHEFTEFVGATMFGTYNVISLVVLLNMLIAMMNNSYQLIADHADIEWKFARTKLWMSYFEEGGTLPTPFNVIPSPKSLWYLVKWIWTHLCKKKMRRKPESFGTIGRRAADNLRRHHQYQEVMRNLVKRYVAAMIREAKTEEGLTEENVKELKQDISSFRFEVLGLLRGSK", "notes": "mouse TRPC4, a.a; 1-758 of 974 (a.a. 759-974 left out); MBP tag removed with PreScission protease; also called mTRPC4; truncated TRPC4; source: HEK293S GnTI- cells, BacMam baculovirus, purified (amylose resin, Superose 6); not shown: MBP, N-terminal, cleaved"}}, "biological_target": "the molecule itself", "assay": "cryo-EM structure; single-particle cryo-EM of purified TRPC4 in digitonin, 30 mM HEPES, 150 mM NaCl, 1 mM DTT, pH 7.5; apo state; C4 symmetry imposed; 3.3 Å"}
{"protein": "B1", "values": [{"measurement": "stoichiometry N", "result": 4}]}
